Assay results reported in patent publication US20250382344A1, “Soluble GLP1/GIP/NPY2 Receptor Triple Agonists” (Boehringer Ingelheim International GmH, priority 2024, published 2025).
Numbering of substitutions follows the chain as printed. *1 amine or outer side, *2 acyl side, *3 side chain or, on linkers, in order; H or OH if unused. Where no end group is shown, it is not given here. Side-chain parts run from the residue outwards. [ ]: non-standard residue; d: D form. The star is where a group is joined. γDab = gamma-linked diaminobutyric acid unit, O=C([C@H](CCN[*:1])N[*:3])[*:2]; C20 diacid = O=C(O)CCCCCCCCCCCCCCCCCCC(=O)*; C18 diacid = O=C(O)CCCCCCCCCCCCCCCCC(=O)*; γGlu = O=C(O)[C@H](CCC(=O)[*:2])N[*:1]; εLys = N[C@@H](CCCCN[*:1])C(=O)[*:2]; dtOrn = not defined here; TRX = not defined here; AEEA = NCCOCCOCC(=O)O; Aib = CC(C)(N)C(=O)O

T1: human neuropeptide Y2 receptor (human, UniProt P49146 1-381)
T1 sequence (looked up): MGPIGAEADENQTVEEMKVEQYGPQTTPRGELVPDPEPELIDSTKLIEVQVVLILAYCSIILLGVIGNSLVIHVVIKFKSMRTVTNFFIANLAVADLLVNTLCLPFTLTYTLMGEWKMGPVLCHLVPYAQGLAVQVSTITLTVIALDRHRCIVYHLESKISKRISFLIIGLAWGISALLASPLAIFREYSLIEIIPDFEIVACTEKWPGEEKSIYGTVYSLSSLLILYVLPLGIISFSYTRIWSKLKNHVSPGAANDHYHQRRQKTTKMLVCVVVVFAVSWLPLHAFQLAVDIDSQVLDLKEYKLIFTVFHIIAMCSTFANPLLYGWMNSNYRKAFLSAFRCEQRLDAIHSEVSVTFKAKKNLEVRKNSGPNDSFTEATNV

T2: human GIP receptor (human, UniProt P48546 22-466)
T2 sequence (looked up): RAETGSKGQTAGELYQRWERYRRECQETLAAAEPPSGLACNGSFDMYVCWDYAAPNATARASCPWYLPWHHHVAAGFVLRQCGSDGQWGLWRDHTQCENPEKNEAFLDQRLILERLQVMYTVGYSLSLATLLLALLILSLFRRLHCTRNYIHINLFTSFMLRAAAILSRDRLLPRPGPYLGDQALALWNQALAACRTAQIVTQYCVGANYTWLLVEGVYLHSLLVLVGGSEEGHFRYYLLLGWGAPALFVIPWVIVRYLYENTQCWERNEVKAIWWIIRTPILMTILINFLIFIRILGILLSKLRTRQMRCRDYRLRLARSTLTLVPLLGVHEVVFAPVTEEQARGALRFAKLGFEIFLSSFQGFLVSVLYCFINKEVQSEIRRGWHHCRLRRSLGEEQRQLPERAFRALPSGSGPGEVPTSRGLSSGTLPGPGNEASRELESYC

B1: Compound 155 (peptide)
peptide: Y[Aib]EGTFTSDYSI[Aib]LDEQAQ[Aib]AFVRHLINK([εLys-εLys-γGlu-γGlu-γGlu-γGlu-γGlu-C20 diacid])[Aib]TRQRY-NH2
B2: Compound 135 (peptide)
peptide: Y[Aib]EGTFTSDLSI[Aib]LEKQAQ[Aib]AFVRHLINK([εLys-γGlu-γGlu-γGlu-γGlu-γGlu-γGlu-γGlu-C20 diacid])[Aib]TRQRY-NH2
B3: Compound 134 (peptide)
peptide: Y[Aib]EGTFTSDYSI[Aib]LEKQAQ[Aib]AFVRHLINK([γGlu-γGlu-γGlu-γGlu-γGlu-γGlu-C18 diacid])[Aib]TRQRY-NH2
B4: Compound 136 (peptide)
peptide: Y[Aib]EGTFTSDYSI[Aib]LEKQAQ[Aib]AFVRHLINK([γGlu-γGlu-AEEA-γGlu-γGlu-γGlu-γGlu-C20 diacid])[Aib]TRQRY-NH2
B5: Compound 87 (peptide)
peptide: Y[Aib]EGTFTSDYSI[Aib]LEKQAQ[Aib]AFVRHLINK([dtOrn-γGlu-γGlu-γGlu-γGlu-γGlu-γGlu-C18 diacid])[Aib]TRQRY-NH2
modifications: reading uncertain
B6: Compound 161 (peptide)
peptide: Y[Aib]EGTFTSDYSI[Aib]LEKQAE[Aib]AFVRHLINK([εLys-AEEA-γGlu-γGlu-γGlu-γGlu-γGlu-C20 diacid])[Aib]TRQRY-NH2
B7: Compound 167 (peptide)
peptide: YXEGTFTSDYSIXLEKQAQXAFVRHLINKXTRQRY
modifications: Aib at 2, 13, 20, 30; Lys29 epsilon-amino: C20DA-gGlu-gGlu-gGlu-gGlu-gGlu-AHX; C-terminal amide
B8: Compound 92 (peptide)
peptide: B7 peptide
modifications: Aib at 2, 13, 20, 30; Lys29 epsilon-amino: C18DA-gGlu-gGlu-gGlu-gGlu-gGlu-gGlu-eLys; C-terminal amide
B9: Compound 111 (peptide)
peptide: B7 peptide with Q19A
modifications: Aib at 2, 13, 20, 30; Lys29 epsilon-amino: C18DA-gGlu-gGlu-gGlu-gGlu-gGlu-gGlu-eLys; C-terminal amide
B10: Compound 103 (peptide)
peptide: B7 peptide with Q19E
modifications: Aib at 2, 20, 30; aMeL at 13; Lys29 epsilon-amino: C20DA-gGlu-gGlu-gGlu-gGlu-gGlu-gGlu-eLys; C-terminal amide
B11: Compound 139 (peptide)
peptide: B7 peptide with L26A
modifications: Aib at 2, 13, 20, 30; Lys29 epsilon-amino: C18DA-gGlu-gGlu-gGlu-gGlu-gGlu-gGlu-eLys; C-terminal amide
B12: Compound 127 (peptide)
peptide: B7 peptide with X30L
modifications: Aib at 2, 13, 20; Lys29 epsilon-amino: C18DA-gGlu-gGlu-gGlu-gGlu-gGlu-gGlu-eLys; C-terminal amide
B13: Compound 115 (peptide)
peptide: B7 peptide with Y10L, I27L
modifications: Aib at 2, 13, 20, 30; Lys29 epsilon-amino: C20DA-gGlu-gGlu-gGlu-gGlu-gGlu-gGlu-eLys; C-terminal amide
B14: Compound 140 (peptide)
peptide: B7 peptide
modifications: Aib at 2, 13, 20, 30; Lys29 epsilon-amino: C18DA-gGlu-gGlu-gGlu-gGlu-gGlu-OEG; C-terminal amide
B15: Compound 105 (peptide)
peptide: B7 peptide with E15D
modifications: Aib at 2, 13, 20, 30; Lys29 epsilon-amino: C18DA-gGlu-gGlu-gGlu-gGlu-gGlu-gGlu-eLys; C-terminal amide
B16: Compound 158 (peptide)
peptide: B7 peptide with X30L
modifications: Aib at 2, 13, 20; Lys29 epsilon-amino: C18DA-gGlu-gGlu-gGlu-gGlu-gGlu; C-terminal amide
B17: Compound 122 (peptide)
peptide: B7 peptide with X13L
modifications: Aib at 2, 20, 30; Lys29 epsilon-amino: C18DA-gGlu-gGlu-gGlu-gGlu-gGlu; C-terminal amide
B18: Compound 151 (peptide)
peptide: B7 peptide with X20Y
modifications: Aib at 2, 13, 30; Lys29 epsilon-amino: C18DA-gGlu-gGlu-gGlu-gGlu-gGlu-gGlu-eLys; C-terminal amide
B19: Compound 159 (peptide)
peptide: B7 peptide with X30A
modifications: Aib at 2, 13, 20; Lys29 epsilon-amino: C18DA-gGlu-gGlu-gGlu-gGlu-gGlu-gGlu-eLys; C-terminal amide
B20: Compound 104 (peptide)
peptide: B7 peptide with Q19E
modifications: Aib at 2, 13, 20, 30; Lys29 epsilon-amino: C20DA-gGlu-gGlu-gGlu-gGlu-gGlu-gGlu-eLys; C-terminal amide
B21: Compound 150 (peptide)
peptide: B7 peptide
modifications: Aib at 2, 20, 30; aMeL at 13; Lys29 epsilon-amino: C20DA-gGlu-gGlu-gGlu-gGlu-gGlu-gGlu-eLys; C-terminal amide
B22: Compound 106 (peptide)
peptide: B7 peptide
modifications: Aib at 2, 13, 20, 30; Lys29 epsilon-amino: C20DA-gGlu-gGlu-gGlu-gGlu-gGlu-AHX-AHX; C-terminal amide
B23: Compound 153 (peptide)
peptide: B7 peptide with E15D, H25Y
modifications: Aib at 2, 13, 20, 30; Lys29 epsilon-amino: C18DA-gGlu-gGlu-gGlu-gGlu-gGlu-gGlu-eLys; C-terminal amide
B24: Compound 142 (peptide)
peptide: B7 peptide with S11A
modifications: Aib at 2, 13, 20, 30; Lys29 epsilon-amino: C18DA-gGlu-gGlu-gGlu-gGlu-gGlu-gGlu-eLys; C-terminal amide
B25: Compound 133 (peptide)
peptide: Y[Aib]EGTFTSDYSI[Aib]LEKQAQ[Aib]AFVRHLINK([γGlu-γGlu-γGlu-γGlu-γGlu-γGlu-TRX-C20 diacid])[Aib]TRQRY-NH2
modifications: reading uncertain
B26: Compound 99 (peptide)
peptide: Y[Aib]EGTFTSDYSI[Aib]LEKQAQ[Aib]AFVRHLINK([AEEA-γGlu-γGlu-γGlu-γGlu-γGlu-γGlu-C20 diacid])[Aib]TRQRY-NH2
B27: Compound 163 (peptide)
peptide: Y[Aib]EGTFTSDYSI[Aib]LEKQAQ[Aib]EFVRHLINK([εLys-γGlu-γGlu-γGlu-γGlu-C18 diacid])[Aib]TRQRY-NH2
B28: Compound 121 (peptide)
peptide: Y[Aib]EGTFTSDYSI[Aib]LEKQAQ[Aib]AFVRHLINK([εLys-γGlu-γGlu-γGlu-γGlu-γGlu-γGlu-γGlu-C18 diacid])[Aib]TRQRY-NH2
B29: Compound 162 (peptide)
peptide: Y[Aib]EGTFTSDYSI[Aib]LEKQAE[Aib]AFVRHLINK([εLys-γGlu-γGlu-AEEA-γGlu-γGlu-γGlu-C20 diacid])[Aib]TRQRY-NH2
B30: Compound 120 (peptide)
peptide: Y[Aib]EGTFTSDYSI[Aib]LEKQAQ[Aib]AFVRHLINK([γDab-γGlu-γGlu-γGlu-γGlu-γGlu-γGlu-C18 diacid])[Aib]TRQRY-NH2

Assays:
Assay in all cases: cell-based or functional assay
[1] = biological target: T1, human neuropeptide Y2 receptor
human GIP receptor = biological target: T2, human GIP receptor
human GLP-1 receptor = human GLP-1 receptor (human, UniProt P43220 24-463)

| Binder | EC50, CreLuc reporter, 0.5% hP [1] [nM] | EC50, CreLuc reporter, 100% hP [1] [nM] | EC50, CreLuc reporter, 0.5% hP (human GIP receptor) [nM] | EC50, CreLuc reporter, 100% hP (human GIP receptor) [nM] | EC50, CreLuc reporter, 0.5% hP (human GLP-1 receptor) [nM] | EC50, CreLuc reporter, 100% hP (human GLP-1 receptor) [nM] |
| --- | --- | --- | --- | --- | --- | --- |
| B1 | 6 | 63.1 | 0.7 | 6.1 | – | – |
| B2 | 18.8 | 47.8 | 0.5 | 5.8 | – | – |
| B3 | – | – | – | – | 1 | 4 |
| B4 | 38.5 | 123 | 0.5 | 9.1 | – | – |
| B5 | 16.5 | – | – | – | – | 5.6 |
| B6 | – | – | – | – | 2 | 5 |
| B7 | 13.3 | 267 | – | – | 1 | 18.7 |
| B8 | – | 22.6 | – | – | – | 2 |
| B9 | 53.6 | 77.4 | – | – | 4.7 | 6.1 |
| B10 | 25.9 | 131 | – | – | 0.4 | 0.6 |
| B11 | – | 22.7 | 12.2 | 22.3 | – | – |
| B12 | 10.3 | 76.9 | – | 16.7 | – | – |
| B13 | 10.1 | 107 | – | – | 7 | 9.8 |
| B14 | 22 | 141 | – | 8 | – | – |
| B15 | 19.9 | 49.6 | – | – | 0.3 | 3.4 |
| B16 | 26 | 149 | 0.5 | 14.4 | – | – |
| B17 | 60.8 | 284 | 0.1 | 4.5 | – | – |
| B18 | 32.6 | 89.8 | 0.5 | 5.6 | – | – |
| B19 | 11.5 | 57.5 | 0.2 | – | – | – |
| B20 | 17.5 | 129 | – | – | 2 | 12.9 |
| B21 | – | 90.7 | – | 2.8 | – | – |
| B22 | 7.1 | 41.7 | – | 4.7 | – | – |
| B23 | 40 | 65.5 | 0.1 | – | – | – |
| B24 | 17.4 | 31.8 | 0.3 | 3.4 | – | – |
| B25 | 44.9 | 246 | – | 3.4 | – | – |
| B26 | 16.7 | 125 | 0.5 | 9 | – | – |
| B27 | – | 218 | 0.2 | 5.9 | – | – |
| B28 | 13.8 | – | – | 2.8 | – | – |
| B29 | – | 43.8 | 0.7 | – | – | – |
| B30 | 23.9 | – | – | – | – | 4 |
